# Assay results taken from patent publication US9274129B2, “Methods and reagents for detecting bioactive lipids” (Lpath, Inc., priority 2006, dated 2016).
# “Also recorded” adds a separate entry of the source.
# B1: anti-S1P mAb: murine monoclonal antibody directed against S1P from hybridoma clone 306D326.26 (ATCC SD-5362) (antibody, listed as Mus musculus, V domains shown)
# VH: QAHLQQSDAELVKPGASVKISCKVSGFIFIDHTIHWMKQRPEQGLEWIGCISPRHDITKYNEMFRGKATLTADKSSTTAYIQVNSLTFEDSAVYFCARGGFYGSTIWFDFWGQGTTLTVS
# VL: ETTVTQSPASLSMAIGEKVTIRCITTTDIDDDMNWFQQKPGEPPNLLISEGNILRPGVPSRFSSSGYGTDFLFTIENMLSEDVADYYCLQSDNLPFTFGSGTKLEIK
# How the values were obtained:
# [1] = tested on: SKOV3 cells; test: Taxol-induced apoptosis (caspase activity); type: cell-based, human; settings: Taxol 0.5 mM, 24 h
# Procedure: The ability of LPA to protect ovarian tumor cells against apoptosis when exposed to clinically-relevant levels of the chemotherapeutic agent, paclitaxel (Taxol) was investigated. SKVO3 cells were treated with 1% FBS (S), Taxol (0.5 mM), +/−anti-LPA mAbs for 24 h. […] Apoptosis was assayed by measurement of the caspase activity as recommended by the manufacturer (Promega). As anticipated, LPA protected most of the cancer cell lines tested from taxol-induced cell death. […] Moreover, the anti-LPA antibody was able to remove the protection provided by serum. Serum is estimated to contain about 5-20 mM LPA. […] Taxol-induced caspase activation was enhanced by the addition of all 3 of the anti-LPA mAbs to the culture medium.
# [2] = Direct ELISA on S1P-coated plates, chimeric antibody and mutants; type: binding; settings: antibody 0.1 ug/ml
# Procedure: Microtiter ELISA plates (Costar) were coated overnight with S1P diluted in 1 M Carbonate Buffer (pH 9.5) at 37° C. for 1 hr. Plates were washed with PBS (137 mM NaCl, 2.68 mM KCl, 10.1 mM Na2HPO4, 1.76 mM KH2PO4; pH 7.4) and blocked with PBS/BSA/Tween-20 for 1 hr at room temp or overnight at 4° C. For the primary incubation (1 hr at room temp.), a standard curve using the anti-S1P mAb and the samples to be tested for binding was built using the following set of dilutions: 0.4 μg/mL, 0.2 μg/mL, 0.1 μg/mL, 0.05 μg/mL, 0.0125 μg/mL, and 0 μg/mL, and 100 μl added to each well. Plates were washed and incubated with 100 μl per well of HRP conjugated goat anti-mouse (1:20,000 dilution) (Jackson Immuno Research) or HRP conjugated goat anti-human (H+L) diluted 1:50,000 (Jackson Immuno Research) for 1 hr at room temperature. After washing, the enzymatic reaction was detected with tetramethylbenzidine (Sigma) and stopped by adding 1 M H2SO4. The optical density (OD) was measured at 450 nm using a Thermo Multiskan EX. Raw data were transferred to GraphPad software for analysis.
# The chromogenic reaction was measured and reported as Optical density (OD). The concentration of the panel of antibodies was 0.1 ug/ml. No interaction of the second antibody with S1P-coated matrix alone was detected.
# [3] = tested on: selected human cancer cell lines; test: LPA-induced cancer cell proliferation; type: cell-based; settings: LPA 0.01 mM to 10 mM, 7 human-derived and one rat-derived line, dose dependent
# Procedure: LPA is a potent growth factor supporting cell survival and proliferation by stimulation of Gi, Gq and G12/13 via GPCR-receptors and activation of downstream signaling events. Cell lines were tested for their proliferative response to LPA ([…]). Cell proliferation was assayed by using the cell proliferation assay kit from Chemicon (Temecula Calif.) (Panc-1) and the Cell-Blue titer from Pierce (Caki-1). Each data point is the mean of three independent experiments. […] Even though tumor-derived cells normally have high basal levels of proliferation, LPA appears to further augment proliferation in most tumor cell lines. Anti-LPA mAbs (B7 and B58) were assessed for the ability to inhibit LPA-induced proliferation in selected human cancer cell lines.
# [4] = tested on: Caki-1 cells; test: In vitro IL-8 production, Caki-1; type: cell-based, human; settings: 18:1 LPA 0.2 mM, 24 h, cells without mAb
# Procedure: Three anti-LPA mAbs (B3, B7 and B58) were tested for their abilities to reduce in vitro IL-8 production compared to a non-specific antibody (NS). Caki-1 cells were seeded in 96 well plates and grown to confluency. After overnight serum starvation, cells were treated with 18:1 LPA (0.2 mM) with or without anti-LPA mAb B3, B7, B58 or NS (Non-Specific). After 24 h, cultured supernatants of renal cancer cells (Caki-1), treated with or without LPA and in presence of increasing concentrations of the anti-LPA mAbs B3, B7 and B58, were collected and analyzed for IL-8 levels using a commercially available ELISA kit (Human Quantikine Kit, R&D Systems, Minneapolis, Minn.). […] Similar results were obtained with the other well-known pro-angiogenic factor, VEGF. The inhibition of IL-8 release by the anti-LPA mAbs was also observed in other cancerous cell lines such as the pancreatic cell line Panc-1.
# [5] = Competitive ELISA of anti-S1P mAb, competitor LPA; type: binding
# Procedure: (§1) Screening of serum and cell supernatant for SIP-specific antibodies was by direct ELISA using the thiolated S1P analog described in Example 1 (i.e., compound 10) as the antigen. A standard ELISA was performed, as described below, except that 50 ul of sample (serum or cell supernatant) was diluted with an equal volume of PBS/0.1% Tween-20 (PBST) during the primary incubation. ELISAs were performed in 96-well high binding ELISA plates (Costar) coated with 0.1 μg of chemically-synthesized compound 10 conjugated to BSA in binding buffer (33.6 mM Na2CO3, 100 mM NaHCO3; pH 9.5). The thiolated-S1P-BSA was incubated at 37° C. for 1 hr. at 4° C. overnight in the ELISA plate wells. The plates were then washed four times with PBS (137 mM NaCl, 2.68 mM KCl, 10.14 mM Na2HPO4, 1.76 mM KH2PO4; pH 7.4) and blocked with PBST for 1 hr. at room temperature. For the primary incubation step, 75 uL of the sample (containing the S1P to be measured), was incubated with 25 uL of 0.1 ug/mL anti-S1P mAb diluted in PBST and added to a well of the ELISA plate. […] Optical density of the samples was determined by measurement at 450 nm using an EL-X-800 ELISA plate reader (Bio-Tech).
# (§2) For cross reactivity, a competitive ELISA was performed as described above, except for the following alterations (FIG. 4). […] Biotin incorporation was determined as per kit protocol and ranged from 7 to 11 biotin molecules per antibody. […]
# [6] = ELISA with exchanged crosslinker or protein carrier in the laydown material; type: binding
# Excerpt: For example, the normal crosslinker SMCC was exchanged for IOA in conjugating the thiolated-S1P to BSA as the laydown material in the ELISA. […] Similarly, KLH was exchanged for BSA as the protein that was complexed with thiolated-S1P as the laydown material.
# [7] = Competitive ELISA of anti-S1P mAb, competitor C1P; type: binding
# Procedure: as §1, §2
# [8] = Competitive ELISA of anti-S1P mAb, competitor S1P; type: binding
# Procedure: as §1, §2
# [9] = Competitive ELISA of anti-S1P mAb, competitor DH-S1P; type: binding
# Procedure: as §1, §2
# [10] = Competitive ELISA of anti-S1P mAb, competitor SPC; type: binding
# Procedure: as §1, §2
molecule,measurement,setting,value
"CC(=O)O[C@H]1C(=O)[C@@]2(C)[C@H]([C@H](OC(=O)c3ccccc3)[C@]3(O)C[C@H](OC(=O)[C@H](O)[C@@H](NC(=O)c4ccccc4)c4ccccc4)C(C)=C1C3(C)C)[C@]1(OC(C)=O)CO[C@@H]1C[C@@H]2O [Taxol, paclitaxel]","caspase-3,7 activation",[1],"induced caspase-3,7 activation"
CysPhe,Binding,[2],2 OD
MetLeu,Binding,[2],1.6 OD
lysophosphatidic acid [LPA],proliferation of tumor cell lines,[3],increased proliferation
same,increase of IL-8 expression,[4],100%
B1,antibody binding to LPA,[5],no binding
same,binding characteristics with KLH exchanged for BSA as carrier,[6]; laydown thiolated-S1P complexed with protein,no significant difference
same,binding characteristics with IOA instead of SMCC as crosslinker,"[6]; laydown thiolated-S1P conjugated to BSA, compared with BSA-SMCC-thiolated-S1P",nearly identical
same,antibody binding to C1P,[7],no antibody binding was observed
same,competition by free S1P for mAb binding to S1P on the plate,[8],can compete for binding
same,distinction of thiolated-S1P analog (compound 10) from natural S1P,[8],unable to distinguish
same,competition by free DH-S1P for mAb binding to S1P on the plate,[9],can compete for binding
same,competition by SPC for mAb binding to S1P on the plate,[10],somewhat reduced; also recorded: only slightly competes for binding
